This is an account of results in patent US20090291890A1 (published 2009).

To fix the notation:
T1: Mesyl-dFPR-ACC
T1 sequence (peptide, N-terminal mesyl; D-Phe at position 1 (dF); C-terminal ACC fluorophore): FPR

T2: soluble tissue factor (recombinant human Coagulation Factor III/soluble tissue factor; R&D Systems) (human)
T2 chain: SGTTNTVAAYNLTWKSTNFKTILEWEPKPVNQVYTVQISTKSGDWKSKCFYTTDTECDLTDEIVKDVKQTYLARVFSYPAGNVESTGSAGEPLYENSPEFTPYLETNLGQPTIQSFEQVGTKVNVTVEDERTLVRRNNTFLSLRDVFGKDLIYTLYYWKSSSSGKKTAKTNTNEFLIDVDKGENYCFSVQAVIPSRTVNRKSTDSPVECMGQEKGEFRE

B1: Gla swap FIX/S222A/Q286R/M298Q-FVIIa (enzyme)
chain: YNSGKLEEFVQGNLERECMEEKCSFEEAREVFENTERTTEFWKQYSDGDQCASSPCQNGGSCKDQLQSYICFCLPAFEGRNCETHKDDQLICVNENGGCEQYCSDHTGTKRSCRCHEGYSLLADGVSCTPTVEYPCGKIPILEKRNASKPQGRIVGGKVCPKGECPWQVLLLVNGAQLCGGTLINTIWVVSAAHCFDKIKNWRNLIAVLGEHDLSEHDGDEQARRVAQVIIPSTYVPGTTNHDIALLRLHQPVVLTDHVVPLCLPERTFSERTLAFVRFSLVSGWGRLLDRGATALELQVLNVPRLMTQDCLQQSRKVGDSPNITEYMFCAGYSDGSKDSCKGDSGGPHATHYRGTWYLTGIVSWGQGCATVGHFGVYTRVSQYIEWLQKLMRSEPRPGVLLRAPFP
B2: Gla swap FIX/T128N/P129A/A175S/S222A/Q286R-FVIIa (enzyme)
chain: B1 chain with T129N, P130A, A176S, Q299M
B3: FVIIa V158D/Q286R/E296V/M298Q (enzyme)
chain: ANAFLEELRPGSLERECKEEQCSFEEAREIFKDAERTKLFWISYSDGDQCASSPCQNGGSCKDQLQSYICFCLPAFEGRNCETHKDDQLICVNENGGCEQYCSDHTGTKRSCRCHEGYSLLADGVSCTPTVEYPCGKIPILEKRNASKPQGRIVGGKDCPKGECPWQVLLLVNGAQLCGGTLINTIWVVSAAHCFDKIKNWRNLIAVLGEHDLSEHDGDEQSRRVAQVIIPSTYVPGTTNHDIALLRLHQPVVLTDHVVPLCLPERTFSERTLAFVRFSLVSGWGRLLDRGATALVLQVLNVPRLMTQDCLQQSRKVGDSPNITEYMFCAGYSDGSKDSCKGDSGGPHATHYRGTWYLTGIVSWGQGCATVGHFGVYTRVSQYIEWLQKLMRSEPRPGVLLRAPFP
B4: H257S/Q286R/M298Q/H373F-FVIIa (enzyme)
chain: B3 chain with D158V, H257S, V296E, H373F
B5: H257A/Q286R/M298Q-FVIIa (enzyme)
chain: B3 chain with D158V, H257A, V296E
B6: FVIIa T239V/Q286R/M298Q (enzyme)
chain: B3 chain with D158V, T239V, V296E
B7: S222A/Q286R/M298Q-FVIIa (enzyme)
chain: B3 chain with D158V, S222A, V296E
B8: FVIIa S222A/T239V/H257A/Q286R/M298Q (enzyme)
chain: B3 chain with D158V, S222A, T239V, H257A, V296E
B9: V158D/E296V/M298Q/H373F-FVIIa (enzyme)
chain: B3 chain with R286Q, H373F
B10: FVIIa V158D/Q286R/E296V/M298Q/H373F (enzyme)
chain: B3 chain with H373F
B11: FVIIa S222A/Q286R/M298Q/H373F (enzyme)
chain: B3 chain with D158V, S222A, V296E, H373F
B12: FVIIa T239V/Q286R (enzyme)
chain: B3 chain with D158V, Y234V, V296E, Q298M
B13: FVIIa Gla swap FIX (enzyme)
chain: B1 chain with A223S, R287Q, Q299M
B14: FVIIa S222A/Q286R (enzyme)
chain: B3 chain with D158V, S222A, V296E, Q298M
B15: FVIIa T239V (enzyme)
chain: B3 chain with D158V, T239V, R286Q, V296E, Q298M
B16: FVIIa A175S (enzyme)
chain: B3 chain with D158V, A175S, R286Q, V296E, Q298M
B17: FVIIa T239I (enzyme)
chain: B3 chain with D158V, T239I, R286Q, V296E, Q298M
B18: FVIIa T239I/Q286R (enzyme)
chain: B3 chain with D158V, T239I, V296E, Q298M
B19: FVIIa S222A/H257A/Q286R (enzyme)
chain: B3 chain with D158V, S222A, H257A, V296E, Q298M
B20: FVIIa T239I/Q286R/H373F (enzyme)
chain: B3 chain with D158V, T239I, V296E, Q298M, H373F
B21: FVIIa H257S (enzyme)
chain: B3 chain with D158V, H257S, R286Q, V296E, Q298M
B22: FVIIa K109N (enzyme)
chain: B3 chain with K109N, D158V, R286Q, V296E, Q298M

Substitutions are numbered along the chain they refer to. Numbers in names are those of the source.

The target in one test is Factor X (Homo sapiens (Human)) (UniProt P00742).
Experiment: not given
As for B1, the kcat/KM (M^-1s^-1), TF-dependent assay was 2.1e+08 M⁻¹ s⁻¹ and the kcat/KM, TF-independent assay is 415 M⁻¹ s⁻¹.

Consider B2, for which the kcat/KM, TF-dependent assay came out at 3.88e+07 M⁻¹ s⁻¹ and the kcat/KM, TF-independent assay stood at 30.5 M⁻¹ s⁻¹.

B3: the kcat/KM (M^-1s^-1), TF-dependent assay was 1.49e+08 M⁻¹ s⁻¹ and the kcat/KM, TF-independent assay amounted to 1020 M⁻¹ s⁻¹.

With B4, the kcat/KM (M^-1s^-1), TF-dependent assay is 1.52e+08 M⁻¹ s⁻¹ and the kcat/KM, TF-independent assay came to 30.4 M⁻¹ s⁻¹.

As to B5, the kcat/KM, TF-dependent assay was found to be 1.13e+08 M⁻¹ s⁻¹ and the kcat/KM, TF-independent assay came to 61.5 M⁻¹ s⁻¹.

B6: the kcat/KM (M^-1s^-1), TF-dependent assay worked out at 1.72e+08 M⁻¹ s⁻¹ and the kcat/KM, TF-independent assay came out at 29.3 M⁻¹ s⁻¹.

B7: the kcat/KM (M^-1s^-1), TF-dependent assay stood at 1.29e+08 M⁻¹ s⁻¹ and the kcat/KM, TF-independent assay worked out at 253 M⁻¹ s⁻¹.

As to B8, the kcat/KM (M^-1s^-1), TF-dependent assay is 2.14e+08 M⁻¹ s⁻¹ and the kcat/KM, TF-independent assay came to 143 M⁻¹ s⁻¹.

As to B9, the kcat/KM, TF-dependent assay came to 1.51e+08 M⁻¹ s⁻¹ and the kcat/KM, TF-independent assay was found to be 1300 M⁻¹ s⁻¹.

As for B10, the kcat/KM, TF-dependent assay is 2.39e+08 M⁻¹ s⁻¹.

Regarding B11, the kcat/KM (M^-1s^-1), TF-dependent assay was determined as 1.48e+08 M⁻¹ s⁻¹.

For a further test, the target named is T1, Mesyl-dFPR-ACC.
Experiment: not given
As for B1, the Activity (µmol/sec/µmol), specific activity for mesyl-dFPR-ACC (µmol/sec/µmol) was found to be 1.12.

For B2, the Activity (µmol/sec/µmol), specific activity for mesyl-dFPR-ACC (µmol/sec/µmol) came out at 0.75.

In turn, B3 showed an Activity (µmol/sec/µmol), specific activity for mesyl-dFPR-ACC (µmol/sec/µmol) of 1.83.

Turning to B4, the Activity (µmol/sec/µmol), specific activity for mesyl-dFPR-ACC (µmol/sec/µmol) came to 2.32.

Molecule B5 gave an Activity (µmol/sec/µmol), specific activity for mesyl-dFPR-ACC (µmol/sec/µmol) of 2.18.

In turn, B12 showed an Activity (µmol/sec/µmol), specific activity for mesyl-dFPR-ACC (µmol/sec/µmol) of 1.26.

In the case of B6, the Activity (µmol/sec/µmol), specific activity for mesyl-dFPR-ACC (µmol/sec/µmol) is 1.74.

Molecule B7 had an Activity (µmol/sec/µmol), specific activity for mesyl-dFPR-ACC (µmol/sec/µmol) of 1.9.

Turning to B8, the Activity (µmol/sec/µmol), specific activity for mesyl-dFPR-ACC (µmol/sec/µmol) came out at 1.66.

As for B9, the Activity (µmol/sec/µmol), specific activity for mesyl-dFPR-ACC (µmol/sec/µmol) was 5.6.

For B10, the Activity (µmol/sec/µmol), specific activity for mesyl-dFPR-ACC (µmol/sec/µmol) was determined as 1.89.

B11 yielded an Activity (µmol/sec/µmol), specific activity for mesyl-dFPR-ACC (µmol/sec/µmol) of 2.79.

A further test concerns the target T2, soluble tissue factor (recombinant …). As to the kind of experiment: SPR (Biacore T100), sTF on chip, two-state fit.
B13: the Kd (usually the constant that tells how readily two partners part at equilibrium) was determined as 36 nM.

In the case of B3, the “Affinity Kd-WT/Kd-mut” value turned out to be 3.5 and the Kd was determined as 2.2 nM.

In the case of B14, the “Affinity Kd-WT/Kd-mut” value is 2.3 and the equilibrium dissociation constant (Kd) is 3.4 nM.

With B12, the “Affinity Kd-WT/Kd-mut” value came out at 1.7 and the dissociation constant (Kd) was 2.3 nM.

For B6, the “Affinity Kd-WT/Kd-mut” value is 3.1 and the Kd turned out to be 2.5 nM.

As to B15, the “Affinity Kd-WT/Kd-mut” value was 1.5 and the Kd was found to be 5.2 nM.

Turning to B16, the “Affinity Kd-WT/Kd-mut” value worked out at 0.6 and the Kd was 12.3 nM.

Take B8: the “Affinity Kd-WT/Kd-mut” value came out at 3.4 and the dissociation constant Kd was 2.2 nM.

As to B17, the “Affinity Kd-WT/Kd-mut” value turned out to be 1.2 and the Kd is 6.2 nM.

B18: the “Affinity Kd-WT/Kd-mut” value amounted to 1 and the Kd turned out to be 8 nM.

Consider B19, for which the “Affinity Kd-WT/Kd-mut” value stood at 1.3 and the dissociation constant (Kd) is 6 nM.

For the molecule B20, the “Affinity Kd-WT/Kd-mut” value amounted to 1 and the Kd worked out at 7.8 nM.

On to B10, for which the “Affinity Kd-WT/Kd-mut” value worked out at 4.5 and the Kd was found to be 1.7 nM.

For the molecule B11, the “Affinity Kd-WT/Kd-mut” value was found to be 3.7 and the dissociation constant Kd amounted to 2.1 nM.

As to B21, the “Affinity Kd-WT/Kd-mut” value stood at 1.2 and the equilibrium dissociation constant (Kd) is 6.6 nM.

In the case of B22, the Kd worked out at 10.8 nM.
